Experimental data published in patent US20220363766A1, “COMPOSITIONS AND METHODS FOR TREATING CYTOTOXIC T CELL RESISTANT TUMORS” (Dana-Farber Cancer Institute, Inc., priority 2019, published 2022).
“Also recorded” adds a separate entry of the source.

B1: 7C6-hIgG1: MICA/B α3 domain specific mAb, clone 7C6 with human IgG1 Fc (antibody, V domains shown)
VH: QIQLVQSGPELKKPGETVKVSCKASGYMFTNYAMNWVKQAPEKGLKWMGWINTHTGDPTYADDFKGRIAFSLETSASTAYLQINNLKNEDTATYFCVRTYGNYAMDYWGQGTSVTVSS
VL: DIQMTQTTSSLSASLGDRVTISCSASQDISNYLNWYQQKPDGTVKLLIYDTSILHLGVPSRFSGSGSGTDYSLTISNLEPEDIATYYCQQYSKFPRTFGGGTTLEIK

How the values were obtained:
human NK cells = assay: Characterization of human NK cells in tumor-free NSG mice; format: in vivo; conditions: 10 mg/kg, 24 hours later, blood
Protocol: Tumor-free NSG mice were inoculated intravenously with 2×10^6 human NK cells that were expanded in vitro as described above. At the same time, mice also received intraperitoneal injections of IL-2 (7.5×10^4) as well as panobinostat (10 mg/kg) or PBS as the solvent control. One day later, blood was collected via eye bleeding, and human NK cells were analyzed by flow cytometry.
Tumor-free NSG mice were inoculated intravenously with 2×10^6 human NK cells that were expanded in vitro as described above. At the same time, mice also received intraperitoneal injections of IL-2 (7.5×10^4, Peprotech) as well as panobinostat (10 mg/kg) or PBS as the solvent control. One day later, blood was collected via eye bleeding, and human NK cells were analyzed by flow cytometry.

MICA/B = MICA/B shedding assays in A375 melanoma cells (shed MICA ELISA, MICA/B surface levels by flow cytometry); format: cell-based; conditions: control and B2M-KO A375 cells, 24 hours, vs isotype control
Protocol: 5×10^4 tumor cells were cultured for 24 hours in 96-wells plates (flat-bottom for adherent cells or U-bottom for suspension cells) in the presence of different concentrations of antibodies, IFNγ, and/or panobinostat (ApexBio, catalog number A8178), as indicated in each figure. Following a 24-hour culture period, plates were centrifuged for 5 minutes at 500× g, and supernatants were collected for analysis of shed MICA using the Human MICA ELISA Kit (Abcam, catalog number ab59569).
Adherent cells were detached with Versene (Gibco, catalog number 15040-066) to preserve the integrity of MICA/B proteins on the cell surface. Fc receptors were blocked using Human TruStain FcX™ (Biolegend, catalog number 422302), and cells were stained with PE or APC-conjugated anti-human MICA/B clone 6D4 (Biolegend, catalog numbers 320906 or 320908, respectively). […] Data were acquired using a BD Fortessa X20 or Beckman Coulter CytoFLEX LX, and analyses were performed using FlowJo V10 software.
5×10^4 tumor cells were cultured for 24 hours in 96-wells plates (flat-bottom for adherent cells or U-bottom for suspension cells) in the presence of different concentrations of antibodies, IFNγ, and/or panobinostat (ApexBio, catalog number A8178), as indicated in each figure. […]

A375 melanoma cells = assay: Long-term NK cell-mediated killing assay (image cytometry of GFP+ tumor cells); format: cell-based; conditions: mAb 20 μg/ml pretreatment 24 hours, human NK cells, IL-2 300 U/ml, 72-hour period
Protocol: (§1) For long-term NK cell-mediated killing assays, GFP^+ control and B2M-KO A375 cells were pretreated for 24 hours with MICA/B or isotype control mAbs (20 μg/ml) in tissue culture media. Subsequently, tumor cells were detached with Versene, washed with PBS, and plated in black-wall 96-well plates (Corning™, catalog number 3603) at a density of 5×10^3 cells per well. Human NK cells were added 1-2 hours later at different effector to target ratios as indicated in the figures, and IL-2 (300 U/ml) was added to support NK cell survival. The number of GFP^+ tumor cells was tracked over time using a Celigo Image Cytometer (Nexcelom Bioscience, Lawrence, USA), as reported previously.^40
as §1, with “U/ml, BD Biosciences)” for “U/ml)”, “previously (33).” for “previously.^40”

Molecule | impact on human NK cells transferred to NSG mice (circulating NK cells, CD16a or NKG2D positive NK cells) (human NK cells) | MICA shedding (shed MICA, sandwich ELISA) (MICA/B) | surface levels of MICA/B (flow cytometry) (MICA/B) | efficacy in NK cell-mediated killing, B2M-KO vs control A375 cells (A375 melanoma cells)
Cc1[nH]c2ccccc2c1CCNCc1ccc(/C=C/C(=O)NO)cc1 [panobinostat] | did not negatively impact human NK cells; also recorded: did not inhibit reconstitution of NSG mice with human NK cells | – | – | –
B1 | – | inhibited MICA shedding | increased surface levels of MICA/B | substantially more effective against B2M-KO compared to control A375 melanoma cells
